Test [1] deals with T1, Human PD-1 (cell membrane expressed) (human, UniProt Q15116 25-288). Nature of the test: cell-based or functional assay.
Test [2] concerns the target T1, Human PD-1 (cell membrane expressed). Nature of the test: flow cytometry on CHO cells expressing human PD-1, GMFI, 4-parameter fit, average. An excerpt: (§1) The ability of the anti-human PD-1 agonist antibodies disclosed herein to bind to cell surface human or cynomolgus monkey PD-1 can be measured using a flow cytometric assay. Human and cynomolgus monkey PD-1 (i.e., as shown in SEQ ID NOs: 13 and 15, respectively) expressing stable cells are generated by transfecting human or cynomolgus monkey PD-1 plasmid DNA into Chinese Hamster Ovary cells (CHO-kl; Lonza) using an electroporation system (Gene Pulser Xcell; BioRad) according to established protocols. Stable cells are selected from single isolated cells using 500 μg/mL G418 (Thermo Scientific) in culture medium. For flow cytometry, the cells are transferred into a 96-well V-bottom plate at density of 1×10⁵ cells/well. The cells are washed with 1×FACS buffer (Becton Dickinson #554656). Antibody 1, or control human IgG1 (diluted in FACS buffer in a three-fold 12-point titration of the antibodies, starting at 100 micrograms/mL) are added (in 100 microliters) and cells are incubated at 4° C. for 30 minutes.
(§2) After washing twice in FACS buffer, live/dead cell staining is performed using SytoxBlue (Invitrogen, #S34857) per manufacturer's protocol. […] Flow cytometry data is analyzed using FlowJo software. Geometric Mean Fluorescence Intensity (GMFI) values are used to calculate relative EC₅₀ based on 4-parameter logistic regression.
A general note: In flow cytometry, cells or beads pass a laser one at a time.

Test [3] has as its target T2, Human PD1-extracellular domain (ECD)-His (human, UniProt Q15116 25-167).
T2 construct: Expressed in CHO cells, purified by IMAC and size exclusion; also called human PD-1 ECD; human PD1-ECD-his
Nature of the test: SPR, Biacore T200, 37° C., mAb captured, PD1-ECD-His as analyte, mean ± SD, n=9. On the procedure:
(§3) In subsequent experiments, Biacore was used to measure the binding kinetics for Antibody 1 to human and cynomolgus monkey PD1-extracellular domain (ECD)-His via surface plasmon resonance (SPR) at 37° C. by BIAcore® T200. For analyses at 37° C., binding is evaluated using multiple analytical cycles. Each cycle is performed at 37° C. at a flow rate of 10 μl/minute for mAb capture and 100 μl/minute for ligand association and dissociation. Each cycle consists of the following steps: injection of mAb at 2.5 μg/ml targeting a capture level of approximately 220RUs on flow cell 2, injection of 180 seconds of human or cynomolgus PD1-ECD-his (concentration range of […] to 1.6 nM by 2-fold serial dilution) followed by 600 second dissociation phase, and regeneration using 10 mM glycine hydrochloride, pH 1.5 over a 30 second contact time. Kon, Koff, and KD are calculated essentially as described above. Affinity data is reported as average and standard deviations determined from triplicate measurements in three independent experiments (mean±SD, n=9).
Background: In SPR one partner is held on a chip, and binding of the other changes the refractive index at the surface.

The target in test [4] is T3, Cynomolgus monkey PD1-extracellular domain (ECD)-His (cynomolgus monkey).
T3 construct: Expressed in CHO cells, purified by IMAC and size exclusion; also called cynomolgus monkey PD-1 ECD; cynomolgus PD1-ECD-his
T3 chain: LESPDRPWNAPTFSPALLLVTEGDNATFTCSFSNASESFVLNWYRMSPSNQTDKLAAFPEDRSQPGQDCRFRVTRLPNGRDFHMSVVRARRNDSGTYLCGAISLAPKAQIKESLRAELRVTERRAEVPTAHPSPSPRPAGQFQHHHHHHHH
Described as above. The method, then:
as §3

Test [5] concerns the target T2, Human PD1-extracellular domain (ECD)-His. Nature of the test: SPR, Biacore T200, 37° C., mAb captured, PD1-ECD-His as analyte, mean ± SD, n=9; 37° C. (n=9). On the procedure:
as §3

Test [6] addresses T4, Cynomolgus monkey PD-1 (cell membrane expressed) (cynomolgus monkey, UniProt Q15116 25-288 (human entry)).
T4 construct: Stably expressed on CHO-K1 cells; no cleavage site is stated; also called cyno PD-1; cynomolgus PD-1
T4 chain: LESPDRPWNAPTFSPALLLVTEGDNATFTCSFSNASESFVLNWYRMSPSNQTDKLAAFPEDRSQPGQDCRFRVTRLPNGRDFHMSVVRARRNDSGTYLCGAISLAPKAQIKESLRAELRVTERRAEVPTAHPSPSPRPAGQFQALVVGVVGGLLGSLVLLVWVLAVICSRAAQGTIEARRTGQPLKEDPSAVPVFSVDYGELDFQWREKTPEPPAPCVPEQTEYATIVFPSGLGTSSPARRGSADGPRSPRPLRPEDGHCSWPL
Nature of the test: flow cytometry on CHO cells expressing cynomolgus monkey PD-1, GMFI, 4-parameter fit, average.
Source text: as §1, §2

Test [7] addresses T2, Human PD1-extracellular domain (ECD)-His. In words: SPR, Biacore 8K, 25° C., mAb captured on protein A, PD1-ECD-His as analyte, n=1. On the procedure:
(§4) The binding kinetics of an anti-human PD-1 agonist antibody of the invention to human and cynolmolgus monkey PD-1 ECDs may be determined by use of a surface plasmon resonance biosensor such as BIAcore® 2000, BIAcore® 3000, BIAcore® 8K, or a BIAcore® T100 (GE Healthcare, Piscataway, N.J.). Briefly described, a BIAcore® 8K instrument is used to measure the binding kinetics for Antibody 1 to human and cynomolgus monkey PD1-extracellular domain (ECD)-His via surface plasmon resonance (SPR) at 25° C. Samples are dissolved in 1×HBS-EP+ running buffer (Teknova cat. # H8022) and a protein A coupled CMS Series S sensor chip (GE Healthcare Cat #29139131-AA) is utilized to capture mAb. Human and cynomolgus monkey PD1-ECD proteins which contain a C-terminal 8× histidine tag are expressed in CHO cells and purified by nickel charged IMAC followed by size exclusion.
(§5) Binding is evaluated using multiple analytical cycles. Each cycle is performed at 25° C. at a flow rate of 10 μl/minute for mAb capture and 30 μl/minute for ligand association and dissociation. Each cycle consists of the following steps: injection of mAb at 2 μg/ml for 60 s contact time targeting a capture level of approximately 220RUs on flow cell 2, injection of 150 seconds of human or cynomolgus PD1-ECD-his (concentration range of 400 nM to 1.6 nM by four fold serial dilution) followed by 600 second dissociation phase, and regeneration using 10 mM glycine hydrochloride, pH 1.5 over a 30 second contact time. Association (i.e., Kon) and dissociation rates (i.e., Koff) for each cycle are evaluated using standard double referencing and fit to “1:1 (Langmuir) binding” model in the Biacore 8K evaluation in parallel kinetics batch mode. The affinity (KD) is calculated from the binding kinetics according to the relationship KD=Koff/Kon.

Test [8] has as its target T3, Cynomolgus monkey PD1-extracellular …. The description is as above. The method, then:
as §4, §5

T1 sequence (Q15116 25-288 limits assumed): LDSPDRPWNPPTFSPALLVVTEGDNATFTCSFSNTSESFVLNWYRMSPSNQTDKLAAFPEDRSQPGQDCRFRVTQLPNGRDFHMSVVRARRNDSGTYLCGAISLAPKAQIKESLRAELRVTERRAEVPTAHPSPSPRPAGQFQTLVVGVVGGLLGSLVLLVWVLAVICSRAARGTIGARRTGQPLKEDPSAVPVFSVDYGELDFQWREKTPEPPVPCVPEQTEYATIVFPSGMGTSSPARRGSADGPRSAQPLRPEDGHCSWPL

B1: Antibody 1 (antibody, human IgG1, kappa, V domains shown)
VH: QVQLVQSGAEVKKPGASVKVSCKVSGYSLSKYDMSWVRQAPGKGLEWMGIIYTSGYTDYAQKFQGRVTMTEDTSTDTAYMELSSLRSEDTAVYYCATGNPYYTNGFNSWGQGTLVTVSS
VL: DIQMTQSPSSLSASVGDRVTITCQASQSPNNLLAWYQQKPGKAPKLLIYGASDLPSGVPSRFSGSGSGTDFTLTISSLQPEDFATYYCQNNYYVGPVSYAFGGGTKVEIKR
notes: Humanized IgG1 with kappa light chain; also called anti-human PD-1 agonist antibody; anti-human PD-1 agonist IgG1 antibody
As for B1, the “inhibition of human PD-1 NFAT-luciferase reporter cell activity (IC50)” value in test [1] came out at 0.0752 µg/mL. Further, the EC50 in test [2] came out at 1.3 µg/mL; in test [6], 1.09 µg/mL. In addition, the Kd was found to be 2.29 nM in test [3], 9.51 nM in test [4], 1 nM in test [7] and 4.7 nM in test [8]. Further, the off-rate (koff) in test [3] was determined as 0.000701 s⁻¹; in test [4], 0.00489 s⁻¹; in test [7] it was 0.00017 s⁻¹; in test [8], 0.0011 s⁻¹. In addition, the kon amounted to 519000 M⁻¹ s⁻¹ in test [4], 307000 M⁻¹ s⁻¹ in test [5], 170000 M⁻¹ s⁻¹ in test [7] and 240000 M⁻¹ s⁻¹ in test [8].

As usually defined, the EC50 is the midpoint of the concentration-response curve. As a reminder, the Kd is the concentration at which binding is half-saturated. For orientation: koff means a measure of how fast the partners let go of each other. What is called kon is the rate constant with which the complex forms.

Values taken from patent publication US20190270818A1 (Eli Lilly, published 2019).
